Laboratory results reported in paper PMC3154878.

Assay: cycloheximide chase, Western blot, Hepa1A
Conditions: glycan lost; control: wild type

B1: ERManI: ERManIO-def (protein)
parent chain: MAACEGRRSGALGSSQSDFLTPPVGGAPWAVATTVVMYPPPPPPPHRDFISVTLSFGENYDNSKSWRRRSCWRKWKQLSRLQRNMILFLLAFLLFCGLLFYINLADHWKALAFRLEEEQKMRPEIAGLKPANPPVLPAPQKADTDPENLPEISSQKTQRHIQRGPPHLQIRPPSQDLKDGTQEEATKRQEAPVDPRPEGDPQRTVISWRGAVIEPEQGTELPSRRAEVPTKPPLPPARTQGTPVHLNYRQKGVIDVFLHAWKGYRKFAWGHDELKPVSRSFSEWFGLGLTLIDALDTMWILGLRKEFEEARKWVSKKLHFEKDVDVNLFESTIRILGGLLSAYHLSGDSLFLRKAEDFGNRLMPAFRTPSKIPYSDVNIGTGVAHPPRWTSDSTVAEVTSIQLEFRELSRLTGDKKFQEAVEKVTQHIHGLSGKKDGLVPMFINTHSGLFTHLGVFTLGARADSYYEYLLKQWIQGGKQETQLLEDYVEAIEGVRTHLLRHSEPSKLTFVGELAHGRFSAKMDHLVCFLPGTLALGVYHGLPASHMELAQELMETCYQMNRQMETGLSPEIVHFNLYPQPGRRDVEVKPADRHNLLRPETVESLFYLYRVTGDRKYQDWGWEILQSFSRFTRVPSGGYSSINNVQDPQKPEPRDKMESFFLGETLKYLFLLFSDDPNLLSLDAYVFNTEAHPLPIWTPA
  degradation_or_half_life: no change
